Test results published in article PMC2671562.

Legend:
[1] = molecular target: Drosophila PERIOD fragment lacking helix αF, dPERΔαF[232–538] (Drosophila melanogaster) (UniProt P07663); assay: AUC; sedimentation equilibrium, interference optics, 10 °C, 25 mM HEPES pH 7.7, 100 mM NaCl, 2 mM DTE; four starting concentrations from stocks of 0.8–2 mg/ml; dimer to monomers, K D = 1/K A
[2] = molecular target: ARNT PAS-B (Homo sapiens) (UniProt P27540); assay: NMR; settings: cited from earlier work

Chain of HIF-2α PAS-B (Q99814 239-350): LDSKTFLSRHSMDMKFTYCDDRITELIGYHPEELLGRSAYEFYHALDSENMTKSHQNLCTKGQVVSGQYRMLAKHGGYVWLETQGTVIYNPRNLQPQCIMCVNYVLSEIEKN
Chain of ARNT PAS-B (P27540 356-470): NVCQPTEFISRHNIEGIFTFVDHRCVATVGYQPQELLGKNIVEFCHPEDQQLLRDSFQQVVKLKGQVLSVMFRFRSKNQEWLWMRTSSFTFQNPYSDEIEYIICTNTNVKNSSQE

For “Drosophila PERIOD fragment lacking helix αF, dPERΔαF[232–538] (from UniProt P07663 232-538) (domain or fragment)”, the Kd [1] was 256 µM.
For ARNT PAS-B (from UniProt P27540), the Kd [2] is given as 500 µM.
In the case of HIF-2α PAS-B (from UniProt Q99814), the Kd [2] is given as 30 µM.
